According to patent publication US20190160102A1:

Target: CD33 on MV-4-11 human AML cells (human) (UniProt P20138)
Test: flow cytometry, cell-cell binding: HA-positive erythroid cells within the CFSE-positive MV4-11 population (negative control)

UniProt P20138, sequence (P20138 18-364 limits assumed): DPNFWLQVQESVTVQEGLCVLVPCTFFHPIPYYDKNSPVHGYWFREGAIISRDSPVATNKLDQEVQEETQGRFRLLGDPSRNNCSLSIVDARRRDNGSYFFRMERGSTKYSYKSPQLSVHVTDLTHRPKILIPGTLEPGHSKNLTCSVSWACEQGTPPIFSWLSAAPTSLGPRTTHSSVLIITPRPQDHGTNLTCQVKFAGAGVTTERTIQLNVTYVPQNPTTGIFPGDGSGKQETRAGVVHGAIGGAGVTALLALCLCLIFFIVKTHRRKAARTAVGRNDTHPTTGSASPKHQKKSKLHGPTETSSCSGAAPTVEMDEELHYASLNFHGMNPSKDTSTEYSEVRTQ

percent of erythroid cells positive for binding to MV4-11: 10.7%
Substance: HA-GPA (HA tag-Glycophorin A) expressed on erythroid cells, negative control
